# Assay results published in the supplement of paper PMC10567573.
# B1: SMOC2 (parent)
# chain: QKPLCASDGRTFLSRCEFQRAKCK
# Variants of: B1
# Test: protein stability index of a GFP-peptide fusion (GPS, HEK-293T) (PSI 1-6); higher = more stable
# Settings: c terminus: a fixed tail appended
# 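Also: lentivirally expressed fusions sorted by FACS into six bins by GFP to DsRed ratio, PSI derived from sequencing read proportions per bin multiplied by bin number.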
row,Variant,protein stability index
1,QKPLCASDGRTFQSRCEFQRAKCK,3.4
2,QKPLCASDGRTFRSRCEFQRAKCK,3.15
3,QKPLCASDGRTFHSRCEFQRAKCK,3.31
4,QKPLCASDGRTFASRCEFQRAKCK,1.9
5,QKPLCASDGRTFGSRCEFQRAKCK,3.31
6,QKPLCASDGRTFKSRCEFQRAKCK,3.3
7,QKPLCASDGRTFDSRCEFQRAKCK,4.78
8,QKPLCASDGRTFNSRCEFQRAKCK,3.78
9,QKPLCASDGRTFISRCEFQRAKCK,2.82
10,QKPLCASDGRTFWSRCEFQRAKCK,3.46
11,QKPLCASDGRTFPSRCEFQRAKCK,3.56
12,QKPLCASDGRTFVSRCEFQRAKCK,2.29
13,QKPLCASDGRTFCSRCEFQRAKCK,3.51
14,QKPLCASDGRTFYSRCEFQRAKCK,2.52
15,QKPLCASDGRTFTSRCEFQRAKCK,3.93
16,QKPLCASDGRTFSSRCEFQRAKCK,2.44
17,QKPLCASDGRTFESRCEFQRAKCK,3.72
18,QKPLCASDGRTFLSGCEFQRAKCK,3.93
19,QKPLCASDGRTFLSDCEFQRAKCK,4.47
20,QKPLCASDGRTFLSHCEFQRAKCK,3.79
21,QKPLCASDGRTFLSKCEFQRAKCK,4.2
22,QKPLCASDGRTFLSCCEFQRAKCK,3.06
23,QKPLCASDGRTFLSACEFQRAKCK,3.65
24,QKPLCASDGRTFLSNCEFQRAKCK,3.09

row,Variant,protein stability index
1,QKPLCASDGRTFLSPCEFQRAKCK,4.64
2,QKPLCASDGRTFLSVCEFQRAKCK,3.71
3,QKPLCASDGRTFLSLCEFQRAKCK,3.65
4,QKPLCASDGRTFLSSCEFQRAKCK,3.41
5,QKPLCASDGRTFLSWCEFQRAKCK,3.32
6,QKPLCASDGRTFLSFCEFQRAKCK,3.18
7,QKPLCASDGRTFLSICEFQRAKCK,3.77
8,QKPLCASDGRTFLSQCEFQRAKCK,3.45
9,QKPLCASDGRTFLSYCEFQRAKCK,3.09
10,QKPLCASDGRTFLSTCEFQRAKCK,4.28
11,QKPLCASDGRTFLSMCEFQRAKCK,2.92
12,QKPLCASDGRTFLSECEFQRAKCK,4.14
13,QKPLCASDGRTFLYRCEFQRAKCK,2.71
14,QKPLCASDGRTFLLRCEFQRAKCK,3.76
15,QKPLCASDGRTFLKRCEFQRAKCK,2.93
16,QKPLCASDGRTFLERCEFQRAKCK,3.08
17,QKPLCASDGRTFLARCEFQRAKCK,3.42
18,QKPLCASDGRTFLTRCEFQRAKCK,3.4
19,QKPLCASDGRTFLWRCEFQRAKCK,2.21
20,QKPLCASDGRTFLIRCEFQRAKCK,2.48
21,QKPLCASDGRTFLNRCEFQRAKCK,3.47
22,QKPLCASDGRTFLVRCEFQRAKCK,3.22
23,QKPLCASDGRTFLHRCEFQRAKCK,3.73
24,QKPLCASDGRTFLMRCEFQRAKCK,3.66

row,Variant,protein stability index
1,QKPLCASDGRTFLPRCEFQRAKCK,4.08
2,QKPLCASDGRTFLQRCEFQRAKCK,3.25
3,QKPLCASDGRTFLGRCEFQRAKCK,3.44
4,QKPLCASDGRTFLCRCEFQRAKCK,2.82
5,QKPLCASDGRTFLDRCEFQRAKCK,3.21
6,QKPLCASDGRTFLFRCEFQRAKCK,2.64
7,QKPLCASDGRRFLSRCEFQRAKCK,2.52
8,QKPLCASDGRYFLSRCEFQRAKCK,2.03
9,QKPLCASDGRMFLSRCEFQRAKCK,2.89
10,QKPLCASDGRKFLSRCEFQRAKCK,4.04
11,QKPLCASDGRHFLSRCEFQRAKCK,2.38
12,QKPLCASDGRLFLSRCEFQRAKCK,2.68
13,QKPLCASDGRFFLSRCEFQRAKCK,2.09
14,QKPLCASDGRAFLSRCEFQRAKCK,3.12
15,QKPLCASDGRQFLSRCEFQRAKCK,3.74
16,QKPLCASDGRWFLSRCEFQRAKCK,2.81
17,QKPLCASDGRSFLSRCEFQRAKCK,3.14
18,QKPLCASDGRIFLSRCEFQRAKCK,2.71
19,QKPLCASDGRGFLSRCEFQRAKCK,2.6
20,QKPLCASDGREFLSRCEFQRAKCK,3.89
21,QKPLCASDGRDFLSRCEFQRAKCK,3.33
22,QKPLCASDGRVFLSRCEFQRAKCK,2.33
23,QKPLCASDGRNFLSRCEFQRAKCK,3.06
24,QKPLCASDGRCFLSRCEFQRAKCK,2.05

row,Variant,protein stability index
1,QKPLCASDGRPFLSRCEFQRAKCK,3.37
2,QKPLCASDGPTFLSRCEFQRAKCK,3.11
3,QKPLCASDGTTFLSRCEFQRAKCK,3.54
4,QKPLCASDGKTFLSRCEFQRAKCK,2.96
5,QKPLCASDGQTFLSRCEFQRAKCK,3.33
6,QKPLCASDGGTFLSRCEFQRAKCK,3.17
7,QKPLCASDGITFLSRCEFQRAKCK,2.53
8,QKPLCASDGNTFLSRCEFQRAKCK,1.99
9,QKPLCASDGMTFLSRCEFQRAKCK,2.72
10,QKPLCASDGETFLSRCEFQRAKCK,3.27
11,QKPLCASDGYTFLSRCEFQRAKCK,2.91
12,QKPLCASDGWTFLSRCEFQRAKCK,2.58
13,QKPLCASDGDTFLSRCEFQRAKCK,3.76
14,QKPLCASDGHTFLSRCEFQRAKCK,2.71
15,QKPLCASDGSTFLSRCEFQRAKCK,3.84
16,QKPLCASDGFTFLSRCEFQRAKCK,2.95
17,QKPLCASDGVTFLSRCEFQRAKCK,4.03
18,QKPLCASDGLTFLSRCEFQRAKCK,3.04
19,QKPLCASDGCTFLSRCEFQRAKCK,2.89
20,QKPLCASDGRTFLSRCEFQCAKCK,3.45
21,QKPLCASDGRTFLSRCEFQHAKCK,2.77
22,QKPLCASDGRTFLSRCEFQFAKCK,2.29
23,QKPLCASDGRTFLSRCEFQGAKCK,3.58
24,QKPLCASDGRTFLSRCEFQDAKCK,4.16

row,Variant,protein stability index
1,QKPLCASDGRTFLSRCEFQEAKCK,3.45
2,QKPLCASDGRTFLSRCEFQAAKCK,3.14
3,QKPLCASDGRTFLSRCEFQIAKCK,3.39
4,QKPLCASDGRTFLSRCHFQRAKCK,2.84
5,QKPLCASDGRTFLSRCDFQRAKCK,2.11
6,QKPLCASDGRTFLSRCWFQRAKCK,1.54
7,QKPLCASDGRTFLSRCPFQRAKCK,3.07
8,QKPLCASDGRTFLSRCKFQRAKCK,3.19
9,QKPLCASDGRTFLSRCNFQRAKCK,3.29
10,QKPLCASDGRTFLSRCQFQRAKCK,4.38
11,QKPLCASDGRTFLSRCGFQRAKCK,2.26
12,QKPLCASDGRTFLSRCSFQRAKCK,2.68
13,QKPLCASDGRTFLSRCVFQRAKCK,2.82
14,QKPLCASDGRTFLSRCYFQRAKCK,3.05
15,QKPLCASDGRTFLSRCMFQRAKCK,2.6
16,QKPLCASDGRTFLSRCLFQRAKCK,2.29
17,QKPLCASDGRTFLSRCCFQRAKCK,2.74
18,QKPLCASDGRTFLSRCTFQRAKCK,3.3
19,QKPLCASDGRTFLSRCIFQRAKCK,3.15
20,QKPLCASDGRTFLSRCAFQRAKCK,3.31
21,QKPLCASDGRTFLSRCRFQRAKCK,3.5
22,QKPLCASDGRTFLSRCFFQRAKCK,2.32
23,QKPLCASDGRTFLSRMEFQRAKCK,3.43
24,QKPLCASDGRTFLSRGEFQRAKCK,4.3

row,Variant,protein stability index
1,QKPLCASDGRTFLSRNEFQRAKCK,4.28
2,QKPLCASDGRTFLSRTEFQRAKCK,3.96
3,QKPLCASDGRTFLSRHEFQRAKCK,4.04
4,QKPLCASDGRTFLSRWEFQRAKCK,2.89
5,QKPLCASDGRTFLSRVEFQRAKCK,2.61
6,QKPLCASDGRTFLSRSEFQRAKCK,3.83
7,QKPLCASDGRTFLSRYEFQRAKCK,3.06
8,QKPLCASDGRTFLSREEFQRAKCK,4.62
9,QKPLCASDGRTFLSRPEFQRAKCK,3.57
10,QKPLCASDGRTFLSRDEFQRAKCK,4.62
11,QKPLCASDGRTFLSRIEFQRAKCK,1.79
12,QKPLCASDGRTFLSRKEFQRAKCK,3.9
13,QKPLCASDGRTFLSRREFQRAKCK,4.44
14,QKPLCASDGRTFLSRFEFQRAKCK,3.86
15,QKPLCASDGRTFLSRAEFQRAKCK,3.39
16,QKPLCASDGRTFLSRLEFQRAKCK,2.55
17,QKPLCASDGRTFLSRCEFCRAKCK,3.48
18,QKPLCASDGRTFLSRCEFHRAKCK,3.58
19,QKPLCASDGRTFLSRCEFSRAKCK,4.18
20,QKPLCASDGRTFLSRCEFDRAKCK,3.83
21,QKPLCASDGRTFLSRCEFPRAKCK,3.28
22,QKPLCASDGRTFLSRCEFLRAKCK,2
23,QKPLCASDGRTFLSRCEFMRAKCK,3.09
24,QKPLCASDGRTFLSRCEFFRAKCK,2.53

row,Variant,protein stability index
1,QKPLCASDGRTFLSRCEFVRAKCK,2.71
2,QKPLCASDGRTFLSRCEFERAKCK,3.48
3,QKPLCASDGRTFLSRCEFARAKCK,2.98
4,QKPLCASDGRTFLSRCEFGRAKCK,3.15
5,QKPLCASDGRTFLSRCEFTRAKCK,3.36
6,QKPLCASDGRTFLSRCEFNRAKCK,3.34
7,QKPLCASDGRTFLSRCEFWRAKCK,1.55
8,QKPLCASDGRTFLSRCEFKRAKCK,3.67
9,QKPLCASDGRTFLSRCEFYRAKCK,3.13
10,QKPLCASDGRTFLSRCEFIRAKCK,3
11,QKPLCASDGRTFLSRCENQRAKCK,4.19
12,QKPLCASDGRTFLSRCERQRAKCK,4.37
13,QKPLCASDGRTFLSRCEPQRAKCK,3.49
14,QKPLCASDGRTFLSRCEAQRAKCK,3.93
15,QKPLCASDGRTFLSRCEGQRAKCK,4.44
16,QKPLCASDGRTFLSRCEWQRAKCK,1.6
17,QKPLCASDGRTFLSRCEEQRAKCK,4.73
18,QKPLCASDGRTFLSRCEIQRAKCK,4.24
19,QKPLCASDGRTFLSRCEYQRAKCK,2.21
20,QKPLCASDGRTFLSRCEVQRAKCK,4.01
21,QKPLCASDGRTFLSRCEHQRAKCK,4.32
22,QKPLCASDGRTFLSRCESQRAKCK,3.82
23,QKPLCASDGRTFLSRCECQRAKCK,3.56
24,QKPLCASDGRTFLSRCEDQRAKCK,4.12

row,Variant,protein stability index
1,QKPLCASDGRTFLSRCEKQRAKCK,4.62
2,QKPLCASDGRTFLSRCEMQRAKCK,3.67
3,QKPLCASDGRTDLSRCEFQRAKCK,4.57
4,QKPLCASDGRTCLSRCEFQRAKCK,2.97
5,QKPLCASDGRTQLSRCEFQRAKCK,4.5
6,QKPLCASDGRTILSRCEFQRAKCK,3.4
7,QKPLCASDGRTVLSRCEFQRAKCK,3.92
8,QKPLCASDGRTGLSRCEFQRAKCK,3.93
9,QKPLCASDGRTRLSRCEFQRAKCK,3.73
10,QKPLCASDGRTSLSRCEFQRAKCK,4.83
11,QKPLCASDGRTNLSRCEFQRAKCK,3.96
12,QKPLCASDGRTMLSRCEFQRAKCK,3.16
13,QKPLCASDGRTALSRCEFQRAKCK,3.84
14,QKPLCASDGRTLLSRCEFQRAKCK,2.97
15,QKPLCASDGRTWLSRCEFQRAKCK,2.34
16,QKPLCASDGRTYLSRCEFQRAKCK,2.49
17,QKPLCASDGRTTLSRCEFQRAKCK,3.63
18,QKPLCASDGRTPLSRCEFQRAKCK,4
19,QKPLCASDGRTHLSRCEFQRAKCK,4.22
20,QKPLCASDGRTELSRCEFQRAKCK,4.5
